Data reported in patent US20230312689A1 (NATIONAL UNIVERSITY CORPORATION KUMAMOTO UNIVERSITY, published 2023).

Assays:
[1] = molecular target: spike protein of SARS-CoV-2 mutant strain B.1.351 (SARS-CoV-2); assay: cell-based or functional assay
[2] = molecular target: SARS-CoV-2 spike protein, European type SD614G (SARS-CoV-2, UniProt P0DTC2 14-1273); assay: cell-based or functional assay

Binder | IC50, pseudovirus neutralization, 293FT/DSP/ACE2/TMPRSS2 cells [1] | neutralizing activity (IC50 value), pseudovirus, 293F/ACE2/TMPRSS2 cells [2] | neutralizing activity (IC50 value), pseudovirus, Caco-2 cells [2] | neutralizing activity (IC50 value), pseudovirus, Calu-3 cells [2]
CTMA9-105 (antibody, V domains shown) VH: EVQLVESGGGLIQPGGSLRLSCAASGITVSSNYMSWVRQAPGKGLEWVSLIYSGGSTYYADSVKGRFTISRDNSKNTLYLQMNSLRAEDTAVYYCARDLEEAGGMDVWGQGTTVTVSS VL: DIVMTQSPGTLSLSPGERATLSCRASQSVPSIYLAWYQQRPGQAPRLLIYGASSRATGIPDRFSGSGSGTDFTLTISRLEPEDFAVYYCQQYGSSPGTFGQGTKVEIK | 0.021 µg/mL | 0.0035 µg/mL | 0.00092 µg/mL | 0.0019 µg/mL
CSSA10-121 (antibody, V domains shown) VH: EVQLVESGGGLIQPGGSLRLSCAASGLTVSRNYMSWVRQAPGRGLEWVSLIYSGGSTYYADSVKGRFTISRDSSKNTLYLQMNSLRAEDTAVYYCARPIVGARAGMDVWGQGTTVTVSS VL: DIRMTQSPSSLSASVGDRVTITCQASQDISNYLNWYQQKPGKAPKLLIYDASNLETGVPSRFSGSGSGTDFTFTISSLQPEDIATYYCQQYDNLPVTFGQGTRLEIK |  | 0.018 µg/mL | 0.015 µg/mL | 0.12 µg/mL
